B1: Interferon-induced, double-stranded RNA-activated protein kinase (Homo sapiens), P19525 (parent)
chain: MAGDLSAGFFMEELNTYRQKQGVVLKYQELPNSGPPHDRRFTFQVIIDGREFPEGEGRSKKEAKNAAAKLAVEILNKEKKAVSPLLLTTTNSSEGLSMGNYIGLINRIAQKKRLTVNYEQCASGVHGPEGFHYKCKMGQKEYSIGTGSTKQEAKQLAAKLAYLQILSEETSVKSDYLSSGSFATTCESQSNSLVTSTLASESSSEGDFSADTSEINSNSDSLNSSSLLMNGLRNNQRKAKRSLAPRFDLPDMKETKYTVDKRFGMDFKEIELIGSGGFGQVFKAKHRIDGKTYVIKRVKYNNEKAEREVKALAKLDHVNIVHYNGCWDGFDYDPETSDDSLESSDYDPENSKNSSRSKTKCLFIQMEFCDKGTLEQWIEKRRGEKLDKVLALELFEQITKGVDYIHSKKLIHRDLKPSNIFLVDTKQVKIGDFGLVTSLKNDGKRTRSKGTLRYMSPEQISSQDYGKEVDLYALGLILAELLHVCDTAFETSKFFTDLRDGIISDIFDKKEKTLLQKLLSKKPEDRPNTSEILRTLTVWKKSPEKNERHTC
partner: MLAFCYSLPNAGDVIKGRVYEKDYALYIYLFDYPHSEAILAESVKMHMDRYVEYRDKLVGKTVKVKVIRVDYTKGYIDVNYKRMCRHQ

Variants of: B1
Settings: with pg041_vaccc OPG041, P20639

Variant | effect of a mutation on the interaction
MAGDLSAGFFMEELNTYRQKQGVVLKYQELPNSGPPHDRRFTFQVIIDGREFPEGEGRSKKEAKNAAAKLAVEILNKEKKAVSPLLLTTTNSSEGLSMGNYIGLINRIAQKKRLTVNYEQCASGVHGPEGFHYKCKMGQKEYSIGTGSTKQEAKQLAAKLAYLQILSEETSVKSDYLSSGSFATTCESQSNSLVTSTLASESSSEGDFSADTSEINSNSDSLNSSSLLMNGLRNNQRKAKRSLAPRFDLPDMKETKYTVDKRFGMDFKEIELIGSGGFGQVFKAKHRIDGKTYVIKRVKYNNEKAEREVKALAKLDHVNIVHYNGCWDGFDYDPETSDDSLESSDYDPENSKNSSRSKTKCLFIQMEFCDKGTLEQWIEKRRGEKLDKVLALELFEQITKGVDYIHSKKLIHRDLKPSNIFLVDTKQVKIGDFGLVTSLKNDGKRTRSKGTLRYMSPEQISSQDYGKEVDLYALGLILAELLHVCVTAFETSKFFTDLRDGIISDIFDKKEKTLLQKLLSKKPEDRPNTSEILRTLTVWKKSPEKNERHTC [D486V] | decreasing interaction strength

Reference: IntAct's records for PubMed 18971339
